# T1: extracellular domain of human DLL3 protein (aa27-466) having an N-terminal FLAG tag (AdipoGen, AG-40B-0151) (human, UniProt Q9NYJ7 27-466)
# T1 construct: range 27-466; also called DLL3 ECD protein
# T1 sequence (looked up): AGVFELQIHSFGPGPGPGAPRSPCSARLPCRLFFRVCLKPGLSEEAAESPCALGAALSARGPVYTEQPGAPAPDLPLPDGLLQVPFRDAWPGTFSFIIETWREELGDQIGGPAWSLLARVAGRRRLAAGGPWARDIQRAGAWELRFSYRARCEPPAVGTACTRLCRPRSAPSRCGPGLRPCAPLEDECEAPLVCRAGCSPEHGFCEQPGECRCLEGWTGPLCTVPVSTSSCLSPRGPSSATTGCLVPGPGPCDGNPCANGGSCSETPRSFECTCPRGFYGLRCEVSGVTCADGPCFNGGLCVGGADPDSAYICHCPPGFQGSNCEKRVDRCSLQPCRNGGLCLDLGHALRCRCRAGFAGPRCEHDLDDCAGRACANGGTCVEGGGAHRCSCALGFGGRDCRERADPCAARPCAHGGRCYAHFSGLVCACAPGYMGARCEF
# Molecular target: T1, extracellular domain of human DLL3 …
# Test: ELISA (protein), FACS (cells)
row,Binder,binding result
1,"AS64163 (VHH, camel sdAb; crude E. coli supernatant) VHH: QVRLVESGGGSVQAGGSLRLSCAVSGYRYRWNCMAWFRQAPGKEREGVAAISTGSGSTYYAGSVKGRFTISQDNAKNMYLQMNSLKPEDTAMYYCAADPSVCPGGMWYSKEYRYWGQGTQVTVSS",binds
2,"AS63948 (VHH, camel sdAb; crude E. coli supernatant) VHH: QVQLVESGGGSVQAGGSLRLSCTASGYTYRYLYMGWFRQTPGKEREGVACIYTGSGSTGYADSVKGRFTISQDNAENTVYLQMNSLKPEDTAMYYCAAASPRWGGTCRRWSEYNYWGQGTQVTVSS",binds
3,"AS64182 (VHH, camel sdAb; crude E. coli supernatant) VHH: QVHLMESGGGSVQAGGSLRLSCTASGQTSRYLYMGWFRQTPGKEREGVACIYTGSGSTGYADSVKGRFTISQDNAKNTVYLQTNSLKPEDTAMYYCAASSPHWGGTCRRWSEYKYWGQGTQVTVSS",binds
4,"AS64154 (VHH, camel sdAb; crude E. coli supernatant) VHH: QVQLKESGGGSVQAGGSLRLSCTASGYTYRYLYMGWFRQTPGKEREGVACIYTGSGSTGYADSVKGRFTISQDNAKNTVYLQMNNLKPEDTAMYYCAASSPRWGGTCRRWSQYNYWGQGTQVTVSS",binds
5,"AS64473 (VHH, camel sdAb; crude E. coli supernatant) VHH: QVRLVESGGGSVQAGGSLRLSCTASGYTYRYLYMAWFRQTPGKEREGVACIYTGSGTTGYADSVKGRFTISQDNAKNTVYLQMNSLNAEDTAMYYCAASSPQWGGTCRRWSEYNYWGQGTQVTVSS",binds
6,"AS64135 (VHH, camel sdAb; crude E. coli supernatant) VHH: QVKLVESGGGSVQAGGSLRLSCVASTSTYCRYYMRWYRQAPGKEREFVSAMQPDGTTSYSDSVKGRFTMSQDRANNMLYLQMNSLRPEDTAMYYCKRDPMGGSRTPCTSAWGQGTQVTVSS",binds
7,"AS63930 (VHH, camel sdAb; crude E. coli supernatant) VHH: EVQLAESGGGSVQAGGSLRLSCAASGYTYSGNYMAWFRQAPGNEREGVAVVYNIDGGGRFTTYADSVKGRFTISRGNDKNTVYLQMNSLKPEDSGMYYCAAEVADPTWGSRDQRRYKYWGQGTQVTVSS",binds
8,"AS64120 (VHH, camel sdAb; crude E. coli supernatant) VHH: QVRLVESGGGSVQAGGSLRLSCETSRYIYGNNCMAWFRQAPGKEREGVASIYPAGGRPYYADSVKGRFTISQDNAKNTVYLQMDSLKPEDTAMYYCAARSFSIADCATQSGITRSNFAYWGQGTQVTVSS",binds

# More lines, now with the values ahead:
row,binding result,Binder
1,binds,"AS63951 (VHH, camel sdAb; crude E. coli supernatant) VHH: QVHLMESGGGSVQAGGSLRLACETSRDIYGNNCMAWFRQAPGKEREGVASIYPAGGRPYYADSVKGRFTISQDNAKNTVYLQMDSLKPEDTAMYYCAARSFSIAVCATRSGITRSNFAYWGQGTQVTVSS"
2,binds,"AS64093 (VHH, camel sdAb; crude E. coli supernatant) VHH: QVHLVESGGGSVQAGGSLRLSCATSRYIYGNNCMAWFRQAPGKEREGVASIYPAGGRTYYADSVKGRFTISQDNAKNTVYLQIDSLKPEDTAMYYCAARSFSIGVCATQSGITWSNFAYWGQGTQVTVSS"
3,binds,"AS64183 (VHH, camel sdAb; crude E. coli supernatant) VHH: QVHLVESGGGSVQAGGSLRLSCAASGHTYSANCMAWFRRAPGKEREWVASVYTDDDSTMYTDSVKGRFTIFQDNAKNTVYLQMNSLKPEDTGMYICAADLSGGPAGCGYTHWGQGTQVTVSS"
4,binds,"AS64118 (VHH, camel sdAb; crude E. coli supernatant) VHH: QVQLAESGGGSVQAGGSLRLSCAASGYTYSACRMAWYRQAPGKERELVSFINSAGSTYYADSVKGRFAISRDNAKTTVYLQMNALKAEDTAIYYCNTWDSSCRFQYWGQGTQVTVSS"
5,binds,"AS64124 (VHH, camel sdAb; crude E. coli supernatant) VHH: QVKLVESGGGSVQTGGSLRLSCAVSTYTPSNNYMGWFRQAPGKEREGVAAIATIGGTTRYADSVKGRFTISQDGAKNTIYLQMNGLKPEDTAMYYCAAGRPYSLPLPLPLESGAYRYWGQGTQVTVSS"

# From patent publication US20220249563A1 (LEGEND BIOTECH IRELAND, published 2022)
